Experimental data: article PMC8727753, “Engineering of Reductive Aminases for Asymmetric Synthesis of Enantiopure Rasagiline” (Frontiers in Bioengineering and Biotechnology, 2021)

What was measured:
O=C1CCc2ccccc21 = tested on: T1, O=C1CCc2ccccc21; assay: purified protein; format: biochemical, Aspergillus calidoustus; details: 20 mM propargylamine, 0.2 mM NADPH, 1% DMSO, 100 mM Tris-HCl pH 9.0
T1 construct: dimer in homology model

purified protein = substrate: O=C1CCc2ccccc21; assay: purified protein; format: biochemical, Aspergillus calidoustus; details: 20 mM propargylamine, 0.2 mM NADPH, 1% DMSO, 100 mM Tris-HCl pH 9.0

Q: How did the Km (O=C1CCc2ccccc21) turn out when “AcRedAm (Aspergillus calidoustus; Y214M)” was run?
A: 12 ± 4 µM

Q: And the kcat (O=C1CCc2ccccc21)?
A: 0.014 ± 0.002 s⁻¹

Q: And the kcat/Km (O=C1CCc2ccccc21)?
A: 1170 ± 21 M⁻¹ s⁻¹

Q: “AcRedAm (Aspergillus calidoustus; Q237A)” was tested. Which Km (O=C1CCc2ccccc21) did it give?
A: 9 ± 1 µM

Q: What about the kcat (O=C1CCc2ccccc21) of the same molecule?
A: 0.007 ± 0.001 s⁻¹

Q: What about the kcat/Km (O=C1CCc2ccccc21) of the same molecule?
A: 778 ± 21 M⁻¹ s⁻¹

Q: For “AcRedAm (Aspergillus calidoustus; W207S/Y214C)”, which Km (O=C1CCc2ccccc21) is on record?
A: 21 ± 4 µM

Q: What about the kcat (O=C1CCc2ccccc21) of the same molecule?
A: 0.026 ± 0.002 s⁻¹

Q: And the kcat/Km (O=C1CCc2ccccc21)?
A: 1240 ± 26 M⁻¹ s⁻¹

Q: For “AcRedAm (Aspergillus calidoustus; W207C)”, which Km (O=C1CCc2ccccc21) is on record?
A: 18 ± 2 µM

Q: And the kcat (O=C1CCc2ccccc21)?
A: 0.022 ± 0.001 s⁻¹

Q: And the kcat/Km (O=C1CCc2ccccc21)?
A: 1220 ± 44 M⁻¹ s⁻¹

Q: What does the source list for “AcRedAm (Aspergillus calidoustus; Q237G)”?
A: Km (O=C1CCc2ccccc21): 4 ± 1 µM; kcat (O=C1CCc2ccccc21): 0.002 ± 0.001 s⁻¹; kcat/Km (O=C1CCc2ccccc21): 500 ± 30 M⁻¹ s⁻¹

B1: AcRedAm (Aspergillus calidoustus) (protein)
chain: MSTITLFGLGAMGKALAAKYIEKGYTTTIWNRTPSKAAPLVEKGAKLANTVGEGLASADLIILCLLDNASVRQTLDQATAALNGKTVINLTNGTPSQARETSEWVISHGAQYIHGGIMAVPDMIGSPHAVLLYSGESAETFSRVEAHLSHLGTSKFLGTDPGSASLHDLALLSGMYGLFSGFFHATALVKSQPGTTATGFVQLLTPWLSAMTHYLGALAKQIDEGDYATQGSNMAMQVTGVQNIVRASEEAGVTADLIMPILGRMTRAAEAGYADVDVSAVIEFMKE
notes: dimer in homology model
Q: Which Km (purified protein) does the source give for B1 here?
A: 16 ± 4 µM

Q: And the kcat (purified protein)?
A: 0.017 ± 0.001 s⁻¹

Q: And the kcat/Km (purified protein)?
A: 1060 ± 41 M⁻¹ s⁻¹
